Source: the supplement of paper PMC9170038

Tested on: MS2 coat protein
Experiment: apparent KD of MS2 coat protein; designed switch direction (-1 OFF switch, 1 ON switch): -1; higher = weaker reporter binding
How it was run: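 Each step of the titration lasted 0.8–1.5 h at the lowest concentration and 10–20 min at the highest. The protein, SNAP-549-labelled MS2 coat protein, went from 0.7 or 1.5 nM doubling to 3 µM over RNA switches transcribed on Illumina chips by stalled E. coli RNA polymerase. Normalised cluster fluorescence was curve-fitted, and the per-design median over clusters is given as apparent KD.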

[1] = input ligand: microRNA oligo, concentration not stated
[2] = Eterna round: R95, input ligand: FMN 200 uM
[3] = Eterna round: R95, input ligand: microRNA oligo, concentration not stated
[4] = Eterna round: R95, input ligand: none

Sequence	apparent KD of MS2 coat protein (input ligand: FMN 200 uM) [nM]	apparent KD of MS2 coat protein (input ligand: none) [nM]	apparent KD of MS2 coat protein [1] [nM]	apparent KD of MS2 coat protein [2] [nM]	apparent KD of MS2 coat protein [3] [nM]	apparent KD of MS2 coat protein [4] [nM]
GAUCAUGCAGGAUAUACAUUAACCAUGAAAACAUGGAUCAAACAUGAGGAUCACCCAUGUAGAAGGGCAUGAUC [Omei Ex2 A21] (Eterna round: R97, puzzle: Exclusion 2)	46.6	25.9				
CUUCUCAAAGGAUAUCACGGUAAUAACAUGAGGAUCACCCAUGUGCAAUUCGUGUCCCUGUGAGAAGGUUGAGAAG [Remaor] (Eterna round: R96, puzzle: Exclusion 5)	19.5	13.2	11.1			
CCAUGUUAGCAGGAUAUGCAAUAAAUCUUUUAUGCAGAAGGGCUUACAUGAGGAUCACCCAUGUAUUAAGUCAA [JR_E6_Sub078] (puzzle: Exclusion 6)				118	36	49.9
GCAUGUCUUAAGGAUAUGCCUAGGCGUGAGCCGGCAGAAGGUAAGACAUGAGGAUCACCCAUGUUUUCCUAAAA [jl-ex6-4.30 ViennaUCT mod] (Eterna round: R97, puzzle: Exclusion 6)	280	51.2				
GGGUAGUGAGGAUAUCGUUGUUAGGAGGAGUAGGUAGGAGGCGAGAAGGCACAUGAGGAUCACCCAUGUAUGAA [JR_Exclu4_Sub066] (puzzle: Exclusion 4)					23.5	
AACGAUACGCUCAUAAGAACAUGAGGAUCACCCAUGUGUGGUGAGGAUAUCCACCCAGAGGGAAAGGAGAAGGUACCAGUGGAC [Orsoenbere] (Eterna round: R96, puzzle: Exclusion NG 3)	222	303	143			
AAAAGGCUAGGAUAUACAUGAGGAUCACCCAUGUGAGGGCACGGCCGGCGCGGGCCCGGUAGAAGGAGUCAAAA [Exc;s3-IX] (puzzle: Exclusion 3)					13.4	
GCCGAAAGUGUGAGGAUAUACCUAUGGAUACAUAGGUAGAAGGCACAUGAGGAUCACCCAUGUUCCUCAUCGGC [Eli bmx4 4.17] (Eterna round: R97, puzzle: Brourd's mod of Exclusion 4)	551	92.8				
GAAAAGGUAGGAUAUACGAAAAAAAAGGUUAGAAAAAAAACACAUGAGGAUCACCCAUGUAGAAGGACCAAAAG [salish99_ex2_r3_067] (puzzle: Exclusion 2)				17.4	21.8	17.8
CCUAUGUGAGGAUAUCACUGGUCUGCUCACUAGAUGAUCAGUGAGAAGGCACAUGAGGAUCACCCAUGUCAGUG [Exclusion 4 - Mod Brourd Ex 4-3 - 53] (puzzle: Exclusion 4)					92.9	
UGAACAUGAGGAUCACCCAUGUGGUUAGGUGAAAUCCUGCUGGAGGAUAUAAGUCCUGGUGCCGCUUAGAAGGCCAGCUGACAG [Eternabot solution 48] (Eterna round: R96, puzzle: Exclusion NG 3)	72	82.5	56.7			
UAAGUUUACCGAGGAUAUGGUCCAUAAUUUUUACCAGAAGGCGGACUCAACAUGAGGAUCACCCAUGUAUAAAGGGUAUUUGGU [JR_ExcNG1_Sub046] (Eterna round: R96, puzzle: Exclusion NG 1)	51.2	35.8	27.4			
UAGGUGUGAGGAUAUGGUAAAGAUAAGAUGAUAAAAGAACUCCAGAAGGCACAUGAGGAUCACCCAUGUAGAUG [Mat - Exclusion 4 - Mod of JL - D34] (puzzle: Exclusion 4)				62.9	22.8	25.8
UGAUCUAGCGGAGGAUAUACAUGAGGAUCACCCAUGUAGAUAACAUGACCGUAGUCGUGUAUCGUGUAGAAGGCCGCUAGAUCU [JL ENG2 3.67] (Eterna round: R96, puzzle: Exclusion NG 2)	35	12.6	9.25			
